# Test results taken from the nanobody polyreactivity screen of Harvey et al. (2022).
# Assay: yeast display, Sf9 membrane polyspecificity reagent, FACS + sequencing; frameworks hold sequencing errors
# Procedure, shortened: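 Using colony PCR, genes from sorted yeast display clones were amplified, then sequenced on MiSeq at 2 × 250 and filtered by CDR length. The clones had been stained with 10% biotinylated, detergent-solubilized Sf9 membrane reagent for 1 hour at 4 °C and sorted by FACS into low and high (top ~1%) gates on anti-HA and streptavidin fluorescence. Polyreactivity labels come from the gate of origin.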
row,Sequence,polyreactivity (PSR sort gate)
1,QVQLVESGGGLVQAGGSLRLSCAASGSIFGGYTKGWYRQAPWKERELVAAISRRGGNTYYADSVKGRFTISRDNAQITVYLQMNSLKPEDTAVYYCAVLWPSARIPVKLDYWGQGTQVTVSS,high polyreactivity
2,QVQLVESGGGLVQAGGSLRLSCAASGSTFLYYAMGWYRQAPGKERELVAAITWSGGRTYYADSVKGRFTISRDNAKNTVYLQMNSLKPEVTAVYYCNKAYPWLRSTALNPGLYDYWGQGTQVTVSS,high polyreactivity
3,QVQLVESGGGLVQAGGSLRLSCAASGRTFSQYAMGWYRQAPGKERELVAPISWSGGSTYYADSVKGRFTISRDNAKNTVDLQMNSLKPEDTAVFYCAAVGKGSSRSSYPVLYDYWGQGTQVTVSS,low polyreactivity
4,QVQLVESGGGLVQAGGSLRLSCAASGSTIPLYAMGWYRQAPGKERELVAAISRRGGRTYYADSVKGRFTISRDNAKNTVYLQMNSLKPEDTAVYYCATAVGSRVDYWGQGTQVTVSS,high polyreactivity
5,QVQLVESGGGLVQAGGSLRLRCAASGSIFLVNALGWYRQAPGKEWELVASITWRGGRTYYADSVKGRFTISRDTAKKTVYLQMNRLKPADTAVYYCSALNYRTGERLRYDYWGQGTQVTVSS,low polyreactivity
6,QVQHVESGGGLVQAGGSLRLICAASGITFYFNAMGWYRQAPGKERELVAAISRPGGSTYYADSVKGRFTISRDNAKNTVYLQMNSLKPEDTAVYYCAAEAYFELSGGGLEYGYDYWGQGTQVTVSS,high polyreactivity
7,QVQLEESGRGLLQAGGSLRISCAASGFIYGTNTMGWYRQAPGIARELVAAITSVGSTNYADSVKGRFTISRDNAKNTVYLQMNSLKPEDTAVYYCPATLYYQYGGDYWGQGTQVTVSS,low polyreactivity
8,QVQLVESGGGLVQAGGSLRLSCAASGFTFHSYAMGWYIQAPGKERELVAAISARGGSTYYADSVKGRFTISRDNAKNTVYLQMNSLKPEDTAVYYCAAYSYQVRFYYWGHGTQVTVSS,high polyreactivity
9,QVQLVESGGGLVQAGGSLRLSCAASGRRFVKYAMGWYRQAPGKERELVAAITKSGSSTYYSDSVKGRFTISRDNAKNTVYLQMNSLKPEDTAVYYCAALTISRSRTGYYWGQGTQVTVSS,low polyreactivity
10,QVQLVESGGGLVQAGGSLRLSCAASGSTYYYNAMGWYRQAPGKERELVARISRSGGSTYADSVKGRFSISRDNAKNTVYLQMNSLKPEDTAVYYCNAYAYGTPEFTSYAVRYDYWGQGTQVTVSS,low polyreactivity
11,QVQHVESGGGLVQAGGSLRLSCAASGFTIYYYAMGWYRQAPGKERELVAAISTRDGNTYYADSVKGRFTMSRDNAKNTVYLQMNSLKPEDTAVDYCAADYFRYYPYDYWGQGTQVTVSS,low polyreactivity
12,QVQLVESGGGLVQAGGSLRLSCAASGRIFYSYAMGWYRQAPGKERELVAAIRSTGSTNYADSVKGRFTISRDNAKNTVYLQMNSLKPEDTAVYYCAARTSYRSSLYGYWGQGTQVTVSS,high polyreactivity
13,QVQLVESGGGLVQAGGSLRLSCAASGLIFWRYDMGWYRQAPGKERELVAVITSGGNTYYADAVKGRFRISRDNAKNTVYLQMNSLKPEDTAVYYCNADTWRDDYDYWGQGTQVTVAS,low polyreactivity
14,QVQLVESGVGLVQAGGSLRLSCAASGSTFVWYAMGWYRQAPGKERELVAVIDWSGGSTSYADSVKGRFTISRDNAKNTVSFQMNSLKPEDTAVYYCAAQQGVISRGNYWGQGTQVTVSS,low polyreactivity
15,QVHHVESAGGLVQAGGSLRLICAASGSTFDYYAMGWYRQEPGKERELLAGIDSAGSTNYADSVKGRFTISRDNAKNTVYLQMNSVKTGTYRGLYCNVGKTITTYAFPTFDYWGQGSQVTVSS,low polyreactivity
16,QVQLVESGGGLVQAGGSLRLSCAASGRIFGRNAMGWYRQAPGKERELVAAISSGSGSTYYADSVKGRFTISRDNAKNTVYLQMISLKPEDTAVYYCAATVSTYLAWRGYWGQGTQVTVSS,high polyreactivity
17,QVQLVESGGGLVQAGGSLRLSCAASGSTFYRFAMGWYRTAPGKERELVAAISRSGGSTYYADTVKGRFTISRDNAKNTVYLQMNSLKPEDTAVYYCAAQYTFYYRSWSDYWGQGTQVTVSS,high polyreactivity
